The record followed here is patent US12006519B2, “Polymerase mutants and use with 3′-OH unblocked reversible terminators” (Agilent Technologies, Inc., priority 2021, dated 2024).

Type in all cases: biochemical
The subject of assay [1] is Lightning Terminators. The assay is described as follows: Plate-based assay, incorporation of Lightning Terminators by control extracts. Particulars: control extracts, FIG. 6, FIGS. 7A-7B. Here is the method: (§1) In this example, additional mutant polymerases were derived from Pfu polymerase. To generate the mutants, eighty-seven codons in the Pfu pol B gene were saturated using the QuikChange Lightning Mutagenesis kit and oligonucleotides containing “NDT” codons to create R, N, D, C, G, H, I, L, F, S, Y, and V substitutions with equal frequency. In some cases, mutants missing from NDT libraries were prepared in a separate QuikChange reaction with an equimolar mixture of mutagenic oligos encoding the remaining mutations (A, T, K, Q, E, P, […], W). Thirty-two clones were randomly selected from each QuikChange library (with the exception of T267, Y403, Y410, I475, G499 and K675 libraries which generated fewer transformants). Bacterial lysates were prepared and screened for incorporation of LTA and LTC using a plate-based assay with immobilized primer-templates. A limited number of mutants were also screened for utilization of LTG and LTU (similar trends; data not shown). After washing and UV cleavage (to minimize dye quenching effects), plates were read and fluorescent signals compared to Pfu controls. The following table identifies four mutant Pfu polymerases that served as controls, which were given the arbitrary names Pfu5, Pfu1, and Pfu2, along with Pfu10 (which is discussed above).
Selected lysates, based on screening results, were submitted for sequencing, and an amino acid identification was made based on the selections. […] As shown in Example 3, K477W benefits sequencing by increasing the fraction of full-length reads.

The next assay concerns LTC. The assay is described as follows: Plate-based assay with immobilized primer-templates, incorporation of LTC. Particulars: FIG. 6. Here is the method:
as §1

Assay [2] deals with Lightning Terminators. The assay can be described thus: Sequencing-by-synthesis with Lightning Terminators (87 cycles). Details: ARL (87 cycles) / Lead + Lag / Leading / Lagging: unit not given here. The method, then: This section generally describes how the present mutant polymerases were used for sequencing-by-synthesis, and how their performance in sequencing was measured. Sequencing was performed on a breadboard instrument, essentially as described in Hertzog D, et al., “A high-performance, low-cost approach to next-generation sequencing”, BioOptics World. 2011 Issue November/December 2011.
In this example, mutations were introduced into the DNA polymerase of SEQ ID NO: 12 (Therminator) in an attempt to improve its capability in sequencing with 3′-OH unblocked terminators. Such mutations to Thermococcus sp. 9° N DNA polymerase are disclosed in U.S. Pat. Nos. 9,273,352; 9,677,059; 9,765,309; U.S. Pat. App. Publication No. 20160032377. The following table summarizes sequencing metrics with Lightning Terminators.
As used in this example and those that follow, “Lead+Lag” refers to dephasing errors in Sequencing by Synthesis technology caused by either reading the next base signal (Lead) or reading the previous base signal (Lag) relative to current base signals. Such errors may arise because of imperfect incoporation of reversible terminators by the polymerase.
In this example, mutant polymerases were created by introducing certain mutations (D141A/E143A/A485L) which are present in Therminator. The three mutations were introduced at the equivalent positions in JDF3 (Thermococcus sp. JDF3) and Pfu (Pyrococcus furisosus) DNA polymerases. The new mutant polymerases were then evaluated for their performance in sequencing with Lightning Terminators, as described above.

Assay [3] has as its system Lightning Terminator-A (LTA). The assay can be described thus: Plate-based single-base extension assay, incorporation of LTA. The text has this: This example used saturation mutagenesis at positions 486 and 494 in Pfu D141A/E143A to create additional mutant polymerases. Bacterial extracts were screened in a plate-based single-base extension assay employing Lightning Terminator-A (LTA). Positive clones producing the highest fluorescent signals were sequenced to identify the amino acid replacement. […] Selected lysates, based on screening results, were submitted for sequencing, and an amino acid identification was made based on the selections.
FIG. 3 illustrates the saturation of position 486 in a Pfu polymerase. The QuikChange kit was used with degenerate NDT codon primers to create a library of Pfu A486 mutants. A NDT codon comprises an A, C, G, or T at the first position, an A, G, or T at the second position, and a T at the third position, thereby introducing variability into the primer. The 12 possible NDT codons represent 12 amino acids (Phe, Leu, Ile, Val, Tyr, His, Asn, Asp, Cys, Arg, Ser, and Gly). Heat-clarified extracts were prepared from 32 randomly selected colonies. Extracts were screened for incorporation of LTA in a microtiter plate assay employing an immobilized dsDNA substrate. […]
In this example, additional mutant polymerases were derived from Pfu polymerase. […] After washing and UV cleavage (to minimize dye quenching effects), plates were read and fluorescent signals compared to Pfu controls. […]

[4] abbreviates: alternative polymerases (D141A/E143A), same protein concentrations (0.02 ug/uL in cycle 1 and 0.002 ug/uL in cycles 2-n).

B1: Pfu2: Pfu DNA polymerase with D141A/E143A/A486L/Y546H (protein, UniProt P61875 1-775, looked up, variant D141A E143A A486L Y546H)
DNA polymerase: MILDVDYITEEGKPVIRLFKKENGKFKIEHDRTFRPYIYALLRDDSKIEEVKKITGERHGKIVRIVDVEKVEKKFLGKPITVWKLYLEHPQDVPTIREKVREHPAVVDIFEYDIPFAKRYLIDKGLIPMEGEEELKILAFAIATLYHEGEEFGKGPIIMISYADENEAKVITWKNIDLPYVEVVSSEREMIKRFLRIIREKDPDIIVTYNGDSFDFPYLAKRAEKLGIKLTIGRDGSEPKMQRIGDMTAVEVKGRIHFDLYHVITRTINLPTYTLEAVYEAIFGKPKEKVYADEIAKAWESGENLERVAKYSMEDAKATYELGKEFLPMEIQLSRLVGQPLWDVSRSSTGNLVEWFLLRKAYERNEVAPNKPSEEEYQRRLRESYTGGFVKEPEKGLWENIVYLDFRALYPSIIITHNVSPDTLNLEGCKNYDIAPQVGHKFCKDIPGFIPSLLGHLLEERQKIKTKMKETQDPIEKILLDYRQKLIKLLANSFYGYYGYAKARWYCKECAESVTAWGRKYIELVWKELEEKFGFKVLYIDTDGLHATIPGGESEEIKKKALEFVKYINSKLPGLLELEYEGFYKRGFFVTKKRYAVIDEEGKVITRGLEIVRRDWSEIAKETQARVLETILKHGDVEEAVRIVKEVIQKLANYEIPPEKLAIYEQITRPLHEYKAIGPHVAVAKKLAAKGVKIKPGMVIGYIVLRGDGPISNRAILAEEYDPKKHKYDAEYYIENQVLPAVLRILEGFGYRKEDLRYQKTRQVGLTSWLNIKKS
Turning to B1, the “Utilization of Lightning Terminators (in words)” value in the assay with Lightning Terminators [1] is listed as “could utilize Lightning Terminators”. Moreover, the “Incorporation of LTC (in words)” value in the assay on LTC is “maximize incorporation of LTC”. In the assay on Lightning Terminators [2], the “Sequencing performance with Lightning Terminators (in words)” value is “nearly identical to Therminator”. In the assay on Lightning Terminators [2] (setting [4]), the “% reads >85” value worked out at 49.7%, the “ARL (87 cycles)” value is recorded as 75.3 and the “Lead + Lag” value is reported as 1.3.

B2: A486R: Pfu D141A/E143A with A486R (protein)
chain: MILDVDYITEEGKPVIRLFKKENGKFKIEHDRTFRPYIYALLRDDSKIEEVKKITGERHGKIVRIVDVEKVEKKFLGKPITVWKLYLEHPQDVPTIREKVREHPAVVDIFEYDIPFAKRYLIDKGLIPMEGEEELKILAFAIATLYHEGEEFGKGPIIMISYADENEAKVITWKNIDLPYVEVVSSEREMIKRFLRIIREKDPDIIVTYNGDSFDFPYLAKRAEKLGIKLTIGRDGSEPKMQRIGDMTAVEVKGRIHFDLYHVITRTINLPTYTLEAVYEAIFGKPKEKVYADEIAKAWESGENLERVAKYSMEDAKATYELGKEFLPMEIQLSRLVGQPLWDVSRSSTGNLVEWFLLRKAYERNEVAPNKPSEEEYQRRLRESYTGGFVKEPEKGLWENIVYLDFRAYYPSIIITHNVSPDTLNLEGCKNYDIAPQVGHKFCKDIPGFIPSLLGHLLEERQKIKTKMKETQDPIEWILLDYRQKRIKLLANSFYGYYGYAKARWYCKECAESVTAWGRKYIELVWKELEEKFGFKVLYIDTDGLHATIPGGESEEIKKKALEFVKYINSKLPGLLELEYEGFYKRGFFVTKKRYAVIDEEGKVITRGLEIVRRDWSEIAKETQARVLETILKHGDVEEAVRIVKEVIQKLANYEIPPEKLAIYEQITRPLHEYKAIGPHVAVAKKLAAKGVKIKPGMVIGYIVLRGDGPISNRAILAEEYDPKKHKYDAEYYIENQVLPAVLRILEGFGYRKEDLRYQKTRQVGLTSWLNIKKS
modifications: Mutant of Pyrococcus furiosus Polymerase
Consider B2, for which, in assay [3] (Example 5, saturation mutagenesis in Pfu D141A/E143A, bacterial extracts, LTA), the “Incorporation of Lightning Terminators (in words)” value is “improve incorporation of Lightning Terminators”. The “Incorporation signals compared to the Pfu A486L control (Pfu10)” value in assay [3] (Example 6, LTA and/or LTC) is reported as “superior incorporation signals”.
